Laboratory results reported in patent publication US20030003461.

Molecular target: TGFβ1 (Homo sapiens) (UniProt P01137)
Test: filter
Conditions: 2'-F pyrimidines, 3' fixed sequence removed

Sequence of TGFβ1 (Homo sapiens) (P01137 279-390): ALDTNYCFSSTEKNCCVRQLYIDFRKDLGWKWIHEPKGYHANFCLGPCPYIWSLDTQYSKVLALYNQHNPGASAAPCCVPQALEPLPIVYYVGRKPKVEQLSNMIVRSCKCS

GGGAGCGGAAUUUUUGUGUAGACGUAUGCCGCUUUGNCCAGACGACUCGCCCGA [30NtruNc 37]
Kd (plateau 15%): 0.083 nM

GGGAGANCUGGUAAUUUUGGUUUANCCGUAUNCCCAGACGACUCGCCCGA [30NtruNc 32]
Kd (plateau 15%): 22 nM

GGGAGGGUUAACCGUUAAGACGGCGUNAUUUUGUCCCCAGACGACUCGCCCGA [30NtruNc 7]
Kd (plateau 25%): 2 nM

GGGAGAGGGGUCUGGAAUUUUUGGNUUACCCGUACGCCAGACGACUCGCCCGA [30NtruNc 9]
Kd (plateau 20%): 0.1 nM
